Test results taken from patent US20220411504A1 (Janssen / Centocor, published 2022).
Positions count from the first letter of the chain named.

B1: DL3B587 (bispecific antibody, human IgG1, kappa, L234A L235A)
scFv: DIQMTQSPSSLSASVGDRVTITCRASQGISNYLAWFQQKPGKAPKSLIYAASSLQSGVPSKFSGSGSGTDFTLTISSLQPEDFATYYCQQYNSYPYTFAQGTKLEIKGGSEGKSSGSGSESKSTGGSQVQLVQSGAEVKKPGASVKVSCKASGNTFTNYYIHWVRQAPGQGLEWMGIINPSGGSTSYAQKLQGRMTMTRDTSTSTVYMELSSLRSEDTAVYFCARQGPFIGDAFDIWGQGTMVTVSSEPKSSDKTHTCPPCPAPEAAGGPSVFLFPPKPKDTLMISRTPEVTCVVVSVSHEDPEVKFNWYVDGVEVHNAKTKPREEQYNSTYRVVSVLTVLHQDWLNGKEYKCKVSNKALPAPIEKTISKAKGQPREPQVYVLPPSREEMTKNQVSLLCLVKGFYPSDIAVEWESNGQPENNYLTWPPVLDSDGSFFLYSKLTVDKSRWQQGNVFSCSVMHEALHNHYTQKSLSLS
heavy: EVQLVESGGGLVKPGGSLRLSCAASGFTFSRYNMNWVRQAPGKGLEWVSSISTSSNYIYYADSVKGRFTFSRDNAKNSLDLQMSGLRAEDTAIYYCTRGWGPFDYWGQGTLVTVSSASTKGPSVFPLAPSSKSTSGGTAALGCLVKDYFPEPVTVSWNSGALTSGVHTFPAVLQSSGLYSLSSVVTVPSSSLGTQTYICNVNHKPSNTKVDKKVEPKSCDKTHTCPPCPAPEAAGGPSVFLFPPKPKDTLMISRTPEVTCVVVSVSHEDPEVKFNWYVDGVEVHNAKTKPREEQYNSTYRVVSVLTVLHQDWLNGKEYKCKVSNKALPAPIEKTISKAKGQPREPQVYVYPPSREEMTKNQVSLTCLVKGFYPSDIAVEWESNGQPENNYKTTPPVLDSDGSFALVSKLTVDKSRWQQGNVFSCSVMHEALHNHYTQKSLSLSPG
light: DIQMTQSPSSLSASVGDRVTITCRARQSIGTAIHWYQQKPGKAPKLLIKYASESISGVPSRFSGSGSGTDFTLTISSLQPEDFATYYCQQSGSWPYTFGQGTKLEIKRTVAAPSVFIFPPSDEQLKSGTASVVCLLNNFYPREAKVQWKVDNALQSGNSQESVTEQDSKDSTYSLSSTLTLSKADYEKHKVYACEVTHQGLSSPVTKSFNRGEC
notes: also called CD3W245-Fab; DL3B279-LH-scFv
B2: DL3B582 (bispecific antibody)
heavy: QVQLVQSGAEVKKPGASVKVSCKASGNTFTNYYIHWVRQAPGQGLEWMGIINPSGGSTSYAQKLQGRMTMTRDTSTSTVYMELSSLRSEDTAVYFCARQGPFIGDAFDIWGQGTMVTVSSASTKGPSVFPLAPSSKSTSGGTAALGCLVKDYFPEPVTVSWNSGALTSGVHTFPAVLQSSGLYSLSSVVTVPSSSLGTQTYICNVNHKPSNTKVDKKVEPKSCDKTHTCPPCPAPEAAGGPSVFLFPPKPKDTLMISRTPEVTCVVVSVSHEDPEVKFNWYVDGVEVHNAKTKPREEQYNSTYRVVSVLTVLHQDWLNGKEYKCKVSNKALPAPIEKTISKAKGQPREPQVYVLPPSREEMTKNQVSLLCLVKGFYPSDIAVEWESNGQPENNYLTWPPVLDSDGSFFLYSKLTVDKSRWQQGNVFSCSVMHEALHNHYTQKSLSLSPG
light: DIQMTQSPSSLSASVGDRVTITCRASQGISNYLAWFQQKPGKAPKSLIYAASSLQSGVPSKFSGSGSGTDFTLTISSLQPEDFATYYCQQYNSYPYTFAQGTKLEIKRTVAAPSVFIFPPSDEQLKSGTASVVCLLNNFYPREAKVQWKVDNALQSGNSQESVTEQDSKDSTYSLSSTLTLSKADYEKHKVYACEVTHQGLSSPVTKSFNRGEC
scFv: DIQMTQSPSSLSASVGDRVTITCRARQSIGTAIHWYQQKPGKAPKLLIKYASESISGVPSRFSGSGSGTDFTLTISSLQPEDFATYYCQQSGSWPYTFGQGTKLEIKGGSEGKSSGSGSESKSTGGSEVQLVESGGGLVKPGGSLRLSCAASGFTFSRYNMNWVRQAPGKGLEWVSSISTSSNYIYYADSVKGRFTFSRDNAKNSLDLQMSGLRAEDTAIYYCTRGWGPFDYWGQGTLVTVSSEPKSSDKTHTCPPCPAPEAAGGPSVFLFPPKPKDTLMISRTPEVTCVVVSVSHEDPEVKFNWYVDGVEVHNAKTKPREEQYNSTYRVVSVLTVLHQDWLNGKEYKCKVSNKALPAPIEKTISKAKGQPREPQVYVYPPSREEMTKNQVSLTCLVKGFYPSDIAVEWESNGQPENNYKTTPPVLDSDGSFALVSKLTVDKSRWQQGNVFSCSVMHEALHNHYTQKSLSLSPG
notes: also called CD3W245-LH-scFv; DL3B279-Fab
B3: DL3B583 (bispecific antibody)
heavy: B2 heavy
light: B2 light
scFv: EVQLVESGGGLVKPGGSLRLSCAASGFTFSRYNMNWVRQAPGKGLEWVSSISTSSNYIYYADSVKGRFTFSRDNAKNSLDLQMSGLRAEDTAIYYCTRGWGPFDYWGQGTLVTVSSGGSEGKSSGSGSESKSTGGSDIQMTQSPSSLSASVGDRVTITCRARQSIGTAIHWYQQKPGKAPKLLIKYASESISGVPSRFSGSGSGTDFTLTISSLQPEDFATYYCQQSGSWPYTFGQGTKLEIKEPKSSDKTHTCPPCPAPEAAGGPSVFLFPPKPKDTLMISRTPEVTCVVVSVSHEDPEVKFNWYVDGVEVHNAKTKPREEQYNSTYRVVSVLTVLHQDWLNGKEYKCKVSNKALPAPIEKTISKAKGQPREPQVYVYPPSREEMTKNQVSLTCLVKGFYPSDIAVEWESNGQPENNYKTTPPVLDSDGSFALVSKLTVDKSRWQQGNVFSCSVMHEALHNHYTQKSLSLSPG
notes: also called CD3W245-HL-scFv; DL3B279-Fab
B4: MHGB738 v-region as scFv (E. coli supernatant) (scFv, V domains shown)
VH: QVQLQQSGPGLVKPSQTLSLTCAISGDSVSSNRAAWNWIRQSPSRGLEWLGRTYYRSKWYNDYAVSVKSRITINPDTSKNQISLQLNSVTPEDTAVYYCARVRPGIPFDYWGQGTPVTVSS
VL: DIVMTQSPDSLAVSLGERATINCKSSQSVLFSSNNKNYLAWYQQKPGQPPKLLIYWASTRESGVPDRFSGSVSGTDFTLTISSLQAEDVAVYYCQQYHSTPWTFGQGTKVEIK
notes: One scFv chain; also called MHGB738 (GL optimized B688)
B5: MHGB665 v-region as scFv (E. coli supernatant) (scFv, V domains shown)
VH: QVQLQQSGPGLVKPSQTLSLTCAISGDSVSSNSAAWNWIRQSPSRGLEWLGRTYYRSKWYNDYAVSVKSRITINPDTSKNQISLQLNSVTPEDTAVYYCAGDRRYGIVGLPFAYWGQGTLVTVSS
VL: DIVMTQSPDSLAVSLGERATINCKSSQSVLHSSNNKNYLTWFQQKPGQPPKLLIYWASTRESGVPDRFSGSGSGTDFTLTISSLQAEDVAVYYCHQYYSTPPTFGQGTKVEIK
notes: One scFv chain
B6: MHGB694 v-region as scFv (E. coli supernatant) (scFv, V domains shown)
VH: EVQLLESGGGLVQPGGSLRLSCAASGFTFSSYAMHWVRQAPGKGLDWVSGISGSGFSTYYVDSVKGRFTISRDNSKHTLYLQMNSLRAEDTAVYYCAKDNLVAGTVFDYWGQGTLVTVSS
VL: not shown
notes: One scFv chain
B7: MHGB737 v-region as scFv (E. coli supernatant) (scFv, V domains shown)
VH: B6 VH with D46E, H77N
VL: not shown
notes: One scFv chain; also called MHGB737 (GL optimized B694)

Biological target: T1, DLL3 on tumor cells (SHP-77, HCC1833, G361) (human, UniProt Q9NYJ7 27-618)
T1 sequence: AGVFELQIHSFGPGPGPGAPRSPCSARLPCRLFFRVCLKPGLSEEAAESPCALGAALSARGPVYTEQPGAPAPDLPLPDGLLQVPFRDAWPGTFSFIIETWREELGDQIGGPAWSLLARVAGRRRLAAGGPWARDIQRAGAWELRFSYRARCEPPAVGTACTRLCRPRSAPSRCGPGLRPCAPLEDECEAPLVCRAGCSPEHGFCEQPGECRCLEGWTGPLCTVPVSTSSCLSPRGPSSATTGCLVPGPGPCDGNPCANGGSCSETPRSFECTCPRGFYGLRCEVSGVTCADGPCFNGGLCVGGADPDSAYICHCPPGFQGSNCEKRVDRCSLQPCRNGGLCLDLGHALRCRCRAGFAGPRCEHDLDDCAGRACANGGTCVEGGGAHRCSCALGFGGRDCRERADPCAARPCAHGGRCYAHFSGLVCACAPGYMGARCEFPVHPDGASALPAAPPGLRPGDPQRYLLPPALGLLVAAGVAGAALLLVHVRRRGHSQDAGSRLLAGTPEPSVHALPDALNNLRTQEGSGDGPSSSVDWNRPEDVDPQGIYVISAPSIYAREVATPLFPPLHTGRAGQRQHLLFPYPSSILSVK
Test: cell-based or functional assay

Binder | Cytotoxicity, % lysis of SHP-77 cells (whole PBMCs, 1:1 ET, 30 nM) [%]
B1 | 83.3
B2 | 87.3
B3 | 99.8

Biological target: recombinant HLA-G (human)
Test: ELISA, scFv in E. coli supernatant on recombinant HLA-G

Binder | Room temperature binding signal
B4 | 5.76e+06
B5 | 1.52e+07
B6 | 3.07e+06
B7 | 2.75e+06

Biological target: recombinant HLA-G (human)
Test: ELISA after 10 min heat treatment of the scFv supernatant

Binder | % Binding retained 55° C. [%] | % Binding retained 60° C. [%] | % Binding retained 65° C. [%]
B4 | 14 | 2 | 1
B5 | 103 | 122 | 11
B6 | 85 | 9 | 4
B7 | 84 | 80 | 48

Biological target: T2, recombinant human DLL3 (human, UniProt Q9NYJ7 27-492)
T2 construct: also called DLL3 antigen; Delta-like protein 3
T2 sequence: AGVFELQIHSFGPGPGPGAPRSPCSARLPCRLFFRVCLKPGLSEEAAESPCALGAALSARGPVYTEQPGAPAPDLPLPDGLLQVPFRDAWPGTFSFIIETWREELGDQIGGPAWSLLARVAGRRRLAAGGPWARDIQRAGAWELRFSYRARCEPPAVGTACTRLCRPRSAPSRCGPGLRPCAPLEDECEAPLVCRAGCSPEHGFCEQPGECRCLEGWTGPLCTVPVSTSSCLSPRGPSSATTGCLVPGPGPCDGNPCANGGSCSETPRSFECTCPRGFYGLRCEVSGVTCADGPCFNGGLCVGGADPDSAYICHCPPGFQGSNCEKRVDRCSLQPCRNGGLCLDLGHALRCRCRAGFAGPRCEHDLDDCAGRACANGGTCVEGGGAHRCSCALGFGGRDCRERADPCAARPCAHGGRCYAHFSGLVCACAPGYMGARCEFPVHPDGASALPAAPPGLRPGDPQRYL
Test: SPR (Biacore T200), antibody captured by goat anti-Fc, DLL3 titrated

Binder | Kd [nM]
B1 | 0.031
B2 | 0.016
B3 | 0.016
